Test results reported in US20100204147A1, “Methods For Delivering Thymosin Beta 4, Analogues, Isoforms and Other Derivatives” (REGENERX BIOPHARMACEUTICALS, INC., priority 2003, published 2010).

How the values were obtained:
Assay in all cases: cell-based or functional assay
[1] = target: Recombinant γ-module comprising residues 148-411 of the human fibrinogen γ chain (human) (UniProt P02679)
[2] = target: Human fibrinogen depleted of plasminogen, fibronectin and von Willebrand factor (human) (UniProt P02671)
[3] = target: Fibrin (made from human fibrinogen with bovine thrombin) (human) (UniProt P02671)

apparent Michaelis constant (Km) for the reaction of incorporation by factor XIIIa [1] | degree of factor XIIIa-mediated incorporation after 4 hours (spectrophotometric) (moles per mole) [2] | degree of factor XIIIa-mediated incorporation after 4 hours (spectrophotometric) (moles per mole) [3] | Substance
183 µM |  |  | Synthetic thymosin β4 (from UniProt P62328 2-44) (peptide)
 | 0.2 | 0.4 | FITC-labeled thymosin β4 (from UniProt P62328 2-44) (peptide)
